Data: publication PMC2874908
Like-named read-outs stand apart in the source and are kept apart here.

Key:
[1] = biological target: β-catenin (endogenous, CHO cells) (Chinese hamster (endogenous in CHO)) (UniProt G3H996); experiment: co-IP
[2] = biological target: β-catenin (endogenous, CHO cells) (Chinese hamster (endogenous in CHO)) (UniProt G3H996); experiment: co-IP; remark: listed apart in the source

fold change of dynein with β-catenin, V13 cells against E-cadherin cells [1]: 3 fold
fold change of dynein with β-catenin, V13 cells against E-cadherin cells [2]: 2 to 2.5 fold
Substance: dynein (microtubule motor protein; endogenous, CHO cells) (complex)
